# Test results taken from paper PMC2918291 (Nature structural & molecular biology, 2010).
# Target: the molecule itself
# Test: crystal structure
protein,measurement,value
"MthK K^+ channel ion conduction pore, S68R V77C mutant (domain or fragment, Methanobacterium thermoautotrophicum) VPATRILLLVLAVIIYGTAGFHFIEGESWTVSLYWTFVTIATVGYGDYSPRTPLGMYFTCTLIVLGIGTFAVAVERLLEFLI",binding result,binds
